Experimental data taken from article PMC3079738.

Biological target: human CD81 expressed on transfected CHO cells (human) (UniProt P60033)
Test: flow cytometry on cells; CHO cells transfected with human CD81 plasmid (or naive), 5x10^5 cells incubated with crude 293T cell extract containing E2 for 1 h at room temperature in PBS, 2% fetal calf serum, 0.05% NaN3; detected with goat anti-E2 and FITC anti-goat IgG; MFI as percent of wild type E2 on CHO-CD81

Sequence of UniProt P60033 (P60033 whole entry): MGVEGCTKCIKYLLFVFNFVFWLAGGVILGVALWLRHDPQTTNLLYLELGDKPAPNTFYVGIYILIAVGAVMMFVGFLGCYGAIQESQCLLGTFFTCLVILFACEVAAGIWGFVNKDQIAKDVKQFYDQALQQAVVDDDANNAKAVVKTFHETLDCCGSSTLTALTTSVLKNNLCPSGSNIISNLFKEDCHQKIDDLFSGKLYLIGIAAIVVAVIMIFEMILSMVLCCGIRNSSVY

E2-W529/A, mutant of the carboxyl terminal truncated HCV E2 protein (aa 364-661), strain H77 (from UniProt P27958 364-661) (domain or fragment)
CD81 binding activity as percent of the wild type protein (MFI): < 5%
